Assay results: the supplement of paper PMC12042874
± gives the uncertainty stated by the source.

Assay: amyloid nucleation score (Sup35N fusion, yeast selection) (log enrichment); library NNK2; higher = more nucleation; inactive = no reads after selection
How it was run: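 Output and input plasmid inserts were sequenced by Illumina after psi-negative yeast carrying Sup35N fused to peptides of 20 random codons had been induced 24 hours with 100 μM copper sulfate and grown 7 days at 30°C on medium lacking adenine and uracil. The nucleation score is the DiMSum log enrichment of output over input reads, centred on the mode score of non-aggregating sequences. Sequences with under 100 input reads were excluded.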

Substance	amyloid nucleation score
VTFNALLGFLASICVITSRI	3.16 ± 0.072
VTNHV	0.895 ± 0.33
VTRDARRDSQGDKVV	1.02 ± 0.17
VTRKVLGYCRVW	0.472 ± 0.8
VTRRLYSRFIGTKEISAVIC	0.119 ± 0.43
VTVNFSANARLCRLGLLNVC	-0.222 ± 0.34
VVERKLVMHYGMEMYTVHDG	0.971 ± 0.51
VVEVCC	-0.368 ± 0.27
VVGSWYKSGRKRLQRDDALS	-1.03 ± 0.55
VVLLAKYQVCIICIKEDLSN	3.78 ± 0.12
VVLYCFISLLKFIEIGEGHP	-1.24 ± 1.1
VVNSVVPKRSRLCHFYFTGM	-1.02 ± 0.63
VVRCRWQDTRTVSQGWVIP	0.97 ± 0.33
VVRSHTLQNSALRCWSDG	0.935 ± 0.39
VVSHLGWTWGFKSMLGIRRS	-0.759 ± 0.29
VVSKLFRDFYWRMLKSNMGW	0.448 ± 0.62
VVSWCVEVNPRERAKVDMCR	4.25 ± 0.047
VVSWKCIEYYVVE	-0.871 ± 0.78
VVTGSMDSCGQPKVSSSSAS	0.294 ± 0.38
VVVRNGLLNISFKVNRCGFG	8.662 ± 0.055
VVWGERVHGIWLMCYCNWTG	5.51 ± 0.091
VWCCHLNINVASSLTVSCTR	0.544 ± 0.21
VWDAEFSGPLRHEIMSGFVW	0.08 ± 0.3
VWLNSHFLMGRI	-1.46 ± 0.54
VWLRYYMCFNFVWSIVGVRI	3.81 ± 0.052

Substance	amyloid nucleation score
VWPGLIGHRSFFINLHVGKG	7.38 ± 0.082
VWRIRTAMGTG	0.766 ± 0.19
VWRSLMCFSWNPTMHRLISV	0.363 ± 0.53
VWSRRYTLVGFTSVVPSNDN	0.3 ± 0.37
VWWSLSYFQAVRGQLFHQIV	-0.139 ± 0.42
VWYINSTNYLCPLISRVQVE	-0.997 ± 0.36
VYGSCSVMLGNWCSSVFKVL	0.174 ± 1
VYISSSFDFWMFVNFIDDTL	-0.511 ± 0.43
VYKQVRNKVCSYLSLTERRW	0.654 ± 0.57
VYLFDTYGCSEQFHSVVGYK	-0.916 ± 0.76
VYNSGWQVGWAKGLWSSLYN	-0.409 ± 0.34
VYQIRKV	-0.523 ± 0.33
VYRDDCFHFLDTSQTGACLT	0.797 ± 0.4
VYRYFNLQVISFWMMARHTM	-1.32 ± 1.1
VYSHILDYFACISYAITLVD	2.91 ± 0.13
VYSPAIFTNVFSYVSCEEER	6.56 ± 0.072
VYTTDLPFIYVLSVFMFIHG	-0.447 ± 0.27
VYYTCYDE	0.024 ± 0.4
WALSHYVCNTYYSNHSVSNT	5.57 ± 0.052
WALTHVSLYRFGER	4.32 ± 0.093
WARFEKV	inactive
WCGFHGKATNHFMWIV	1.45 ± 0.27
WCGREVNLHALLCKIDRLTI	0.598 ± 0.49
WCHVSLMYRGYLKSGARDGN	0.199 ± 0.43
WCLGSMVTHYYLATNSSGYC	3.64 ± 0.11

Substance	amyloid nucleation score
WCNTRRCNSPPLVVC	1.86 ± 0.12
WCPLWITCMCLCSGLST	8.742 ± 0.036
WDDFTYGYRLRIYFLIFQRG	-1.15 ± 1.1
WDIFICLVL	-0.063 ± 0.74
WDLLLCNTKFFEIRIKADTL	3.94 ± 0.094
WELVSGVYVTGCTFSSEDVQ	-0.785 ± 0.29
WERVKYLLDYL	inactive
WFMNSNVLHYM	0.27 ± 0.64
WFPRSNAYLCMCFFVLREYQ	0.428 ± 0.66
WGHFAMVRA	0.426 ± 0.8
WGHLFRSPSRSSRFYRVLPA	-0.159 ± 1.1
WGIWFKPALFRNLYTIFAWL	inactive
WGMWCMFHCRVAS	-0.196 ± 1
WHDRDTITGSITIKKMH	-0.702 ± 0.32
WHLVGRRSID	-0.336 ± 0.76
WHSVKMVNMFVGSKVISRSF	5.42 ± 0.07
WIREY	-0.43 ± 0.32
WIVSF	0.131 ± 0.29
WKNYRNMEWCVSSVLSFFYV	5.31 ± 0.077
WKQLSSWIAIDSLRARKTLS	-0.405 ± 0.42
WKSCWLGIWSEGIYILGEET	-0.284 ± 1.1
WKTKISSSSCRSGNRSEPNA	0.281 ± 0.29
WLCDWLASIWCMFGLSGCSR	0.232 ± 0.35
WLDLTYFFSRLGVDVISLQ	-0.468 ± 0.48
WLGYFK	inactive

Substance	amyloid nucleation score
WLICQSIRLLAKNFLLSDRV	0.019 ± 1.1
WLIGRNAKSWAWVFLKRSTG	0.392 ± 0.25
WLKVS	-1.48 ± 0.55
WLLLYTCHLMISQISFHRKS	-0.874 ± 0.61
WLRNWGYAFGPRQNYNCCRV	-0.569 ± 0.49
WLSTKWIFFISNVKFFLYLR	-0.06 ± 1
WLTKLDRTSLEGSEYFKKML	0.307 ± 0.34
WLTLGVYELRWMRSPNTGCL	1.8 ± 0.23
WLWSSLISSMVVYSQ	2.53 ± 0.072
WLYRQFDLSLESYNWMPGIE	3.95 ± 0.12
WMIGRCD	0.319 ± 0.61
WMLRGRYFGTE	-1.47 ± 0.44
WMWPPMPLGKVAQRGLAVVC	1.28 ± 0.22
WNMYNRIWFLGHKLLWGSPT	-0.414 ± 0.76
WNNYVLGYEVNRMCLLDRSV	inactive
WQIGPCYNVLRFLKWFWSLR	-0.637 ± 1.1
WRAIVPSGK	0.067 ± 0.63
WRCGVVFRDEYCYRGNRTFK	-0.675 ± 0.26
WRCSSISCDCDARLGRMRVS	0.697 ± 0.42
WRHSVVMYNWKIGHCVGDYW	0.718 ± 0.18
WRVATCCAGRTIIQLETRFG	8.805 ± 0.058
WRYYAGWYESWSTAGQTCTF	-0.487 ± 1.1
WSCCKFLDCHITVCDFLVWA	7.587 ± 0.047
WSQRMLRSQEVPCSWWEIVT	0.905 ± 0.13
WSRQHDSLMVLWGCRGYY	0.148 ± 0.5

Substance	amyloid nucleation score
WSRSLKDGALESYSSVRLLC	0.1 ± 0.28
WSRTVYGIFCKIG	0.208 ± 0.65
WSTSFYLLIFTPRVCCMDFF	5.619 ± 0.034
WSVGVESSKDQSLDQFGSD	-0.184 ± 1.1
WSWLRICIS	0.549 ± 0.32
WSWLSFYLSGMAFLVRYKSG	-0.344 ± 0.56
WSWSLGNYYAHNVDCYSVGC	-0.266 ± 0.41
WTTIEFRIKGNFM	1.59 ± 0.19
WTWEKWESPHEDGSRRPIVG	1.55 ± 0.18
WTWFESVLRPCKGLGRAPHI	-0.172 ± 0.8
WTYRCPALLFYQFYAKGYA	-0.594 ± 0.63
WVAFANFVHGLMTLGHWGSR	1.28 ± 0.27
WVELVCPYSTYLLSFIASLS	0.278 ± 0.54
WVFGLCSIPLHCVLHGIMMG	2.92 ± 0.16
WVFNNELCNDYEHWLWARFD	-0.295 ± 0.56
WVGGYIQLFYVTRPQVSGRP	3.17 ± 0.061
WVLYGASLCYPWVTSSKLRA	0.589 ± 0.42
WVMAISLADFVLYLNWSLYR	inactive
WVMAVVDHVLSWFYWRLCLF	3.26 ± 0.058
WVTSDRYKRALARKSHEQRN	0.423 ± 0.24
WVYFHSNNSDLLDNEIKLTR	0.652 ± 0.66
WVYNLALCNSRVIKG	-0.51 ± 0.48
WWLKALPRVILARLVSRGQG	0.458 ± 0.29
WWTAQGCTELTVS	0.855 ± 0.27
WYISARPYVFCYDMQRSLRL	-0.505 ± 1.1

Substance	amyloid nucleation score
WYMLLRESPGSCPVGDEQGR	0.923 ± 0.81
WYRLLGFAMD	-0.603 ± 1.1
WYSSSIGHKMWVTYGSLWGQ	0.505 ± 0.54
WYVYSQ	3.25 ± 0.052
YACFDCIIIQAWKFSIGTGL	3.7 ± 0.051
YAESSNDARSSFISKVSAFI	inactive
YAFIILISCFLTDDSTIGVY	-0.24 ± 0.55
YAIKMGFASQVSVEFRWLYK	-0.244 ± 0.28
YAKNYSILQACQLDHWEFGV	4.04 ± 0.056
YARTKDYVLVCLQGICAGVN	-0.14 ± 1
YAVENTLYHVRVVTLQSISW	0.153 ± 0.79
YCDIKIEDLNLGGETGSDRR	inactive
YCDVWGRRCCDANYMERTAS	1.35 ± 0.38
YCNFDRIVYWPLGAAALPFR	0.065 ± 1.1
YCVSNWASNFSLLLYNGNMY	inactive
YDYEEFRSVLKWIAGRIYVD	-1.27 ± 0.48
YDYYLMVISFRFVNFYNGVG	inactive
YEFCSTRQRSELGGK	5.24 ± 0.069
YEHRNGLWSMKKRLIG	0.253 ± 0.31
YEHVIGVWYLGCQGGWVGDH	0.354 ± 0.29
YEISSLRSFRSVLNWYMSGS	4.6 ± 0.052
YERVRRSVYSSMFFSLFNTR	-0.357 ± 1.1
YESGVSCFFVYVMNTYHIWG	5.17 ± 0.097
YFDSDRS	-0.502 ± 0.76
YFEPSSPGVIV	inactive

Substance	amyloid nucleation score
YFFTLKV	0.497 ± 0.46
YFGMISERFRFPVYFQNSPR	-1.14 ± 1.1
YFGVEKDEFPPLLGMHMF	-1.59 ± 0.75
YFIGGGLRVMSRWWMCALMD	3.24 ± 0.086
YFILKFVQTGGNS	4.12 ± 0.041
YFILVLVESLHPSGVPAFWC	-0.103 ± 0.65
YFISDEIVQSNIFSLIGWFC	8.556 ± 0.042
YFLLVVCGWHGFIIESLLRF	inactive
YFNGL	inactive
YFSSTYLRQGIFWCFRMSRL	-0.43 ± 1.1
YFWGMFEYW	inactive
YFYIF	2.03 ± 0.12
YFYLFYCEIRVPTELYLNMP	3.15 ± 0.06
YGALYTVRMEN	-0.482 ± 0.49
YGFPDF	-1.12 ± 1.1
YGFVDSHRTH	0.092 ± 0.61
YGKKCLSKAKKSTKISLPG	0.016 ± 1.1
YGLAFTEDATFFKVCTY	-0.211 ± 0.8
YGLIFNLASFMLRGPRTSFS	-2.15 ± 0.64
